Data: paper PMC6892545

Target: Ulp1^403-621-C580S, on CNBr-activated resin (S. cerevisiae) (UniProt Q02724)
Assay: pull-down; Ulp1^403-621-C580S on CNBr-activated resin incubated with yeast whole cell extract, 2 h at 4 °C, PBSN buffer; anti-Smt3 Western blot

Sequence of UniProt Q02724 (Q02724 403-621 C580S): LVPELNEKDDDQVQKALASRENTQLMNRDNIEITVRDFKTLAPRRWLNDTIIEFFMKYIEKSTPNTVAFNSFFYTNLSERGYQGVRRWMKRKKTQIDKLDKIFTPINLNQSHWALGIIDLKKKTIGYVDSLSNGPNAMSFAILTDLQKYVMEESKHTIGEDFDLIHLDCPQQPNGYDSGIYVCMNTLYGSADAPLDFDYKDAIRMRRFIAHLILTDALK

- percent of SUMO conjugates recovered on the resin: 50%
Substance: Smt3 (yeast SUMO), as endogenous SUMO conjugates in yeast cell extract (from UniProt Q12306 1-101) (natural protein)
